Test results taken from patent US20130142732, “RECOMBINANT FLUORESCENT NANOPARTICLES” (KOREA UNIVERSITY RESEARCH AND BUSINESS FOUNDATION, published 2013).

Experiments:
PDGF-BB [1] = target: T1, PDGF-BB (UniProt P01127 P01127:82-190); assay: printed as 5.0 x 1011 mol/L, exponent sign lost; sandwich plate assay with biotin-aptamer capture, PBS, 37 C, linearized Langmuir; conditions: tags: Sigma-Aldrich; chain copies: 2 (homodimer, inferred); label: Cy3
Method: (§1) On the Basis of the linearized form of the Langmur absorption isotherm and the linear curve of FIG. 5C, the dissociation constants (KD) were determined by a PDGF-BB analysis method using each of the DNA-aptamer-conjugated gFFNP, eGFP, and Cy3, and the results are shown in Table 7.

PDGF-BB [2] = target: T1, PDGF-BB; assay: printed as 4.0 x 1011 mol/L, exponent sign lost; sandwich plate assay with biotin-aptamer capture, PBS, 37 C, linearized Langmuir; conditions: tags: Sigma-Aldrich; chain copies: 2 (homodimer, inferred); label: eGFP
Method: as §1

T1 sequence (P01127 82-190, one chain of several): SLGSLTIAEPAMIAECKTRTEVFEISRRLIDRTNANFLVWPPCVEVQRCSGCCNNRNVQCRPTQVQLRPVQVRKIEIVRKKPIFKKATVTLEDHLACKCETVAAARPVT

Binder	Kd (PDGF-BB [1])	Kd (PDGF-BB [2])
CACAGGCTACGGCACGTAGAGCATCACCATGATCCTGTGT (ssDNA, 5'-Cy3) [PDGF-BB DNA aptamer Cy3-modified]	0.05 nM	–
CACAGGCTACGGCACGTAGAGCATCACCATGATCCTGTGT (ssDNA, 5'-NH2-(CH2)6, SSMCC-coupled to eGFP(S175C)) [PDGF-BB DNA aptamer conjugated to eGFP]	–	0.04 nM
